This is an account of results in the supplement of paper PMC10724198.

± gives the standard deviation of the averaged measurements.

This data set has as its system Saccharomyces cerevisiae. Kind of data set: protein stability index of tFT-peptide fusion (C-terminal peptide) (PSI (0-1 scale)); higher = more stable (slower turnover). Particulars: temperature: 30 C. As to the method:
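MPS profiling in S. cerevisiae of the yeast C-terminome library: the last 12 aa of each annotated ORF are fused to the C-terminus of a sfGFP-mCherry timer, after a GGGS linker. Cells are FACS-sorted into 8 mCherry/sfGFP bins and deep-sequenced. PSI runs from 0 (unstable) to 1 (stable); wild type and das1Δ backgrounds, two technical replicates each.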

Setting [1] is: genetic background: das1 deletion.

IMLTLLMFTGAV [PLB3 C-terminal 12 aa] displayed a protein stability index under setting [1] of 0.402 ± 0.0044 and a protein stability index (genetic background: wild type) of 0.396 ± 0.0091.

In the case of INIQQFAALLSK [CMD1 C-terminal 12 aa], the protein stability index by setting is: under setting [1], 0.66 ± 0.0085; (genetic background: wild type) 0.68 ± 0.0055.

In the case of IPAKKTKISLDY [ELP4 C-terminal 12 aa], the protein stability index under setting [1] stood at 0.6845 ± 0.0032 and the protein stability index (genetic background: wild type) is 0.677 ± 0.018.

For IPELHNLKPTCV [YBR238C C-terminal 12 aa], the protein stability index was determined as 0.67 ± 0.012 under setting [1] and 0.687 ± 0.016 (genetic background: wild type).

IPMTLTTLSTVF [UPA2 C-terminal 12 aa]: the protein stability index runs as follows: under setting [1], 0.619 ± 0.0083; (genetic background: wild type) 0.628 ± 0.012.

Take IQKLEEARNPQF [UPS1 C-terminal 12 aa]: the protein stability index reads like this: under setting [1], 0.704 ± 0.046; (genetic background: wild type) 0.718 ± 0.034.

In the case of IRRHAYYNQDDD [SLA2 C-terminal 12 aa], the protein stability index is, setting by setting: under setting [1], 0.677 ± 0.02; (genetic background: wild type) 0.664 ± 0.0037.

Turning to ITERLFNAALDD [YBR232C C-terminal 12 aa], the protein stability index is 0.7089 ± 0.0038 under setting [1] and 0.708 ± 0.018 (genetic background: wild type).

“ITGLKNNIQKCS [YER068C-A C-terminal 12 aa]”: the protein stability index reads like this: under setting [1], 0.688 ± 0.0055; (genetic background: wild type) 0.253 ± 0.014.

In the case of ITHLKAILPKYL [CCA1 C-terminal 12 aa], the protein stability index was 0.695 ± 0.0085 under setting [1] and 0.324 ± 0.0095 (genetic background: wild type).

As to ITSLKSDEYLVQ [RET2 C-terminal 12 aa], the protein stability index runs as follows: under setting [1], 0.73 ± 0.046; (genetic background: wild type) 0.724 ± 0.085.

As to IVHKSNFINNKK [OXA1 C-terminal 12 aa], the protein stability index stood at 0.7224 ± 0.0042 under setting [1] and 0.6943 ± 0.0055 (genetic background: wild type).

Regarding IVLPMIKDYLFS [HLJ1 C-terminal 12 aa], the protein stability index amounted to 0.678 ± 0.018 under setting [1] and 0.702 ± 0.0079 (genetic background: wild type).

Sequence IWKEVKRHQDFA [ATG20 C-terminal 12 aa] registered a protein stability index under setting [1] of 0.7235 ± 0.0023 and a protein stability index (genetic background: wild type) of 0.734 ± 0.0089.

Regarding IWKPAGNLVGHS [MSI1 C-terminal 12 aa], the protein stability index was 0.698 ± 0.013 under setting [1] and 0.7019 ± 0.0026 (genetic background: wild type).

As for IYDWAGEYPLAV [SHM2 C-terminal 12 aa], the protein stability index reads like this: under setting [1], 0.707 ± 0.026; (genetic background: wild type) 0.737 ± 0.0049.

As to IYHKDGNKVLKE [YDR391C C-terminal 12 aa], the protein stability index under setting [1] amounted to 0.706 ± 0.053 and the protein stability index (genetic background: wild type) stood at 0.6606 ± 0.0043.

Turning to IYKLEYYLLTMQ [YOR199W C-terminal 12 aa], the protein stability index came out at 0.574 ± 0.011 under setting [1] and 0.526 ± 0.034 (genetic background: wild type).

For the sequence IYRRRKNKIFFW [RCK1 C-terminal 12 aa], the protein stability index by setting is: under setting [1], 0.705 ± 0.012; (genetic background: wild type) 0.692 ± 0.045.

In turn, KAAINQQSTPLN [RPH1 C-terminal 12 aa] came in with a protein stability index under setting [1] of 0.676 ± 0.016 and a protein stability index (genetic background: wild type) of 0.728 ± 0.053.

On to KAKFEGKKIKFD [BUD22 C-terminal 12 aa], for which the protein stability index reads like this: under setting [1], 0.678 ± 0.011; (genetic background: wild type) 0.7092 ± 0.0046.

KALIQRKGGKLE [RPL26A C-terminal 12 aa]: the protein stability index stood at 0.6757 ± 0.0023 under setting [1] and 0.688 ± 0.037 (genetic background: wild type).

As to KDEDEEADEDMK [PRE9 C-terminal 12 aa], the protein stability index under setting [1] was 0.711 ± 0.033 and the protein stability index (genetic background: wild type) stood at 0.694 ± 0.014.

For the sequence KDRCGNVPHQSR [MRN1 C-terminal 12 aa], the protein stability index amounted to 0.706 ± 0.0088 under setting [1] and 0.716 ± 0.08 (genetic background: wild type).

Consider KEASRRFDAGKI [SOD2 C-terminal 12 aa], for which the protein stability index runs as follows: under setting [1], 0.6778 ± 0.0059; (genetic background: wild type) 0.6795 ± 0.0053.

For the sequence KEKKDKKKKSKD [NOP56 C-terminal 12 aa], the protein stability index worked out at 0.686 ± 0.025 under setting [1] and 0.661 ± 0.022 (genetic background: wild type).

Take KELEFGLDRKYF [SLT2 C-terminal 12 aa]: the protein stability index reads like this: under setting [1], 0.6989 ± 0.0057; (genetic background: wild type) 0.68 ± 0.04.

Regarding KELVKRRIVGEV [AEP3 C-terminal 12 aa], the protein stability index is, setting by setting: under setting [1], 0.6815 ± 0.0042; (genetic background: wild type) 0.72 ± 0.064.
